According to article PMC6265248:

Target: C. reinhardtii Rubisco (CrRubisco), L8S8 holoenzyme (C. reinhardtii (endogenous in strain CC-2677)) (UniProt P00877)
Assay: co-sedimentation; droplet sedimentation assay of demixed (phase-separated) EPYC1-Rubisco droplets, with microscopy: 10 µl reactions, 10 min, 20 mM Tris-HCl pH 8.0, 50 mM NaCl, room temperature, 21,100 x g, SDS-PAGE and densitometry of pellet and supernatant

Substance: Essential Pyrenoid Component 1 (EPYC1), residues 46-317 (natural protein)
- stoichiometry N (EPYC1:Rubisco): 1 to 4
- stoichiometry N (EPYC1 molecules per Rubisco holoenzyme): 2
